Paper PMC3727927 (Molecular Biology of the Cell, 2013)

Target: the molecule itself
Experiment: light scattering

B1: Bacillus subtilis MreB A277Q K305D double mutant, Strep-tagged (natural protein)
chain: MFGIGARDLGIDLGTANTLVFVKGKGIVVREPSVVALQTDTKSIVAVGNDAKNMIGRTPGNVVALRPMKDGVIADYETTATMMKYYINQAIKNKGMFARKPYVMVCVPSGITAVEERAVIDATRQAGARDAYPIEEPFAAAIGANLPVWEPTGSMVVDIGGGTTEVAIISLGGIVTSQSIRVAGDEMDDAIINYIRKTYNLMIGDRTAEAIKMEIGSAEAPEESDNMEIRGRDLLTGLPKTIEITGKEISNALRDTVSTIVEAVKSTLEKTPPELAQDIMDRGIVLTGGGALLRNLDKVISEETDMPVLIAEDPLDCVAIGTGKALEHIHLFKGKTR
B1: binds.
